# Results published in the nanobody polyreactivity screen of Harvey et al. (2022).
# Assay: yeast display, Sf9 membrane polyspecificity reagent, FACS + sequencing; frameworks hold sequencing errors
# In short: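 In a synthetic yeast display library (Saccharomyces cerevisiae BJ5465), nanobody expression was induced with galactose for 36–48 hours. FACS gates were set low and high (top ~1%) using anti-HA fluorescence for expression and streptavidin fluorescence for binding of the Sf9 membrane reagent. Each polyreactivity label is drawn from the gate of origin.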
row,Sequence,polyreactivity (PSR sort gate)
1,QVQLVESGGGLVQAGGSLRLSCAASGSIFRYYAMGWYRQAPGKERELVAAINSRGGTTYYADSVKGRFTISRDNAKNTVYLQMNSLKPEDTAVYYCAAGYPPLHTSVQQTAHYGLDYWGQGTQVTVSS,high polyreactivity
2,QVQLVESGGGLVQAGGSLRLSCAASGSIFRYYAMGWYRQAPGKERELVAAISSSGDNTYYADSVKGRFTISRDNAKNTVYLQMNSLKPEDTAVYYCAVRGERRYIYDYWGQGTQVTVSS,high polyreactivity
3,QVQLVESGGGLVQAGGSLRLSCAASGSIFRYYAMGWYRQAPGKERELVAAITASGGRTHYADSVKGRFTISRDNAKNTVYLQMNSLKLEDTAVYYCSADLYYAWYWKQHYDYWGQGTQVTVSS,high polyreactivity
4,QVQLVESGGGLVQAGGSLRLSCAASGSIFRYYAMGWYRQAPGKERELVAAITWRGGGTYYADSVKGRFTISRDNAKNTVYLQMNSLKPEDTAVYYCAKARFTRGTWFYYWGQGTQVTVSS,high polyreactivity
5,QVQLVESGGGLVQAGGSLRLSCAASGSIFRYYAMGWYRQAPGKERELVARISRNAGRTYYADSVKGRFTISRDNAKNTVYLQMNSLKPEDTAVYYCAADGSKPYAMDYWGQGTQVTVSS,high polyreactivity
6,QVQLVESGGGLVQAGGSLRLSCAASGSIFRYYAMGWYRQAPGKERELVATISSGGRTYYADSVKGRFTISRDNAKNTVYLQMNSQKPEDTAVYYCAARYGTTRYGFDYWGQGTQVTVSS,high polyreactivity
7,QVQLVESGGGLVQAGGSLRLSCAASGSIFRYYDMGWYRQAPGKERELVAAISYSDGRTYYADSVKGRFTISRDNAKNTVYLQMNSLKPEDTAVYYCAAETLYVSPYFFVVQYDYWGQGTKVTVSS,high polyreactivity
8,QVQLVESGGGLVQAGGSLRLSCAASGSIFSANAMGWYRQAPGKERELVAAITSGDSTKYADSVKGRFTISRDNAKNTVYLQMNSLKPEDTAVYYCAVDRGEYKNRVGEEYWGQGTQVTVSS,low polyreactivity
9,QVQLVESGGGLVQAGGSLRLSCAASGSIFSAYAIGWYRQAPGKERELDAAITKSSVTYYADSVKGRFTISRDNAKNSVYLHMNSLKPEDTAVYYCAAASGGTVVGEVDYWGQGTQVTVSS,low polyreactivity
10,QVQLVESGGGLVQAGGSLRLSCAASGSIFSAYAMGWYIQAPGKERELVAGITGSGGRTYYADSVKGRFTISRDNAKNTVYLQMNSLKPEDTAVYYCLARSYYNWYDYWGQGTQVTVSS,high polyreactivity
11,QVQLVESGGGLVQAGGSLRLSCAASGSIFSDYAIGWYSTAPGKERELVASISWTGGGTYYADSVKGRFTISRDNAKNTVYLQMNSVKPEDTGFYYCAAEYSYIMDFWGQGTQVTVSS,high polyreactivity
12,QVQLVESGGGLVQAGGSLRLSCAASGSIFSDYAMGWYRQAPGKERELVAAITQSGVSTYADSVKGRFTISRDNAKNTVYLQMNSLKPEDTAVYYCAADEVPGFGYPPYPWFDYWGQGTQVTVSS,low polyreactivity
13,QVQLVESGGGLVQAGGSLRLSCAASGSIFSENTMGWYRPAPGKKRELVADITSGGSTNYADSVKGRFTISRDNAKKTVYLQMNSLKPEDTAVYYCAADYNGEYDYWGLGTQVTVSS,low polyreactivity
14,QVQLVESGGGLVQAGGSLRLSCAASGSIFSFNVMGWYRQAPGKERELVATITGGGSTNYADSVKGRFTISRDNAKNTVYLQMNSLIPEDTAVYYCAARPVNGGILEYWGQGTQVTVSS,low polyreactivity
15,QVQLVESGGGLVQAGGSLRLSCAASGSIFSFYTMGWYRQAPGKERELVAAINWSGSRTYYADSVKGRFTISRDNAKKTVYLQMNSLNPEDTAVYYCAARKYYSRAYDYWGQGTQVTVSS,high polyreactivity
16,QVQLVESGGGLVQAGGSLRLSCAASGSIFSGNAMGWYRQAPGKERELVAAISRSGGSTYYADSVKGRFTISRDYAKNTVYLQMNSLKPEDTAVYYCAKGQYYYIGDYDYWGQGTQVTVSS,high polyreactivity
17,QVQLVESGGGLVQAGGSLRLSCAASGSIFSGYAMGWYRQAPGKERELVAAISRRGTSTYYADSVKGRFTISRDNAKNTVYLQMNSLKPEDTAVYYCAATYGGRQSYGGFDYWGQGTQVTVSS,high polyreactivity
18,QVQLVESGGGLVQAGGSLRLSCAASGSIFSGYAMGWYRQAPGKERELVAAITRSGGRTYYADSVKGRFTISRDNAKNTVYLQMNSLKPEDTAVYYCAARGGPGDDYWGQGTQVTVSS,high polyreactivity
19,QVQLVESGGGLVQAGGSLRLSCAASGSIFSGYVMGWYRQAPGKERELVAAIDNSSGSTYYADSVKGRFTISRDNAKNSVYLQMNSLKPEDTAVYYCAAAYYWKAYSEYDYWGQGTQVTVSS,low polyreactivity
20,QVQLVESGGGLVQAGGSLRLSCAASGSIFSHNAMGWYRQAPGKERELVAAISWSAASTYYADSVKGRFTISRDNAKNTVYLQMNSLKPEDTAVYYCAAVPYSSTYRYDYWGQGTQVTVSS,low polyreactivity
21,QVQLVESGGGLVQAGGSLRLSCAASGSIFSHNVMVWYRQAPGKERELVAAISGGGGRTYYADSVKGRFTISRDNAKNTVYLQMNSLKAEDTAVYYCNAYVGLSEGDYWGQGTQVSVSS,high polyreactivity
22,QVQLVESGGGLVQAGGSLRLSCAASGSIFSIYAMGWYRQAPGKERDFVASITVTDGSTYYADSVKGRFTISRDNAKNTVYLQMNSLKPEDTAVYYCYADGWYALYEWLAVSGYYWGQGTQVTVSS,low polyreactivity
23,QVQLVESGGGLVQAGGSLRLSCAASGSIFSIYAMGWYRQAPGKERELVAAISWSGGSTYYADSVKGRFTISRDTAKITVYLQMNSLKPEDTAVYYCAAEYEYMWSQYLTEYGYDYWGQGTQVTVSS,low polyreactivity
24,QVQLVESGGGLVQAGGSLRLSCAASGSIFSKNAMGWYRQAPGKERELVAAISSSGGITYYADSVKVRFTISRDNANNTVYLQMNSLKPEDTAFYYCATLGGAIRQAFEYWGQGTQVNVSS,low polyreactivity
25,QVQLVESGGGLVQAGGSLRLSCAASGSIFSKYAMGRYRPAPGKERELVAAISRRGGDTYYADSVKGRFTISRDNAKNTVYLQMNSLKPEDTAVYYCAAYQYYLYDYWGQGTQVTVSS,high polyreactivity
26,QVQLVESGGGLVQAGGSLRLSCAASGSIFSKYAMGWYRPAPGKERELVAAIASSGGSTYYADSVKGRFTISRDNAKNTVYFQMNSLKPEDTAVYYCAAGGRSVRYNYWGQGTQVTVSS,high polyreactivity
27,QVQLVESGGGLVQAGGSLRLSCAASGSIFSKYAMGWYRQAPGKERELVAAITFRSGSTYYADSVKGRFTISRDNAKNTVYLQMNSLKPEDTAVYYCAADEYYQVSAYDYWGQGTQVTVSS,low polyreactivity
28,QVQLVESGGGLVQAGGSLRLSCAASGSIFSKYAMGWYRQAPVKERELVAAIDWSGGSTYYADSVKGRFTISRDNAKNTVYLQMNSLKPEDTAVYYCNAEYVVADYGYYTIEFDYWGQGTQVTVSS,low polyreactivity
29,QVQLVESGGGLVQAGGSLRLSCAASGSIFSKYTMGWYRQAPGKERELVAAISRAGSTYYADSVKGRFTISRDNAKNTVYLQMNSLKPEDTAVYYCAAEWSDSVYYSYEYWGQGTQVTVSS,high polyreactivity
30,QVQLVESGGGLVQAGGSLRLSCAASGSIFSKYVMGWYRQAPGKQTELVAAISWSGTRTYYADSVKGRFTISRDNAKNTVYLQMNSLKPEDTAVYYCAALRLYAGHQYDYWGQGTQVTVSS,high polyreactivity
